Data on two substances can be found in publication PMC9316690.

Assay [1] concerns the target EFm1 D166Q, full-length chain (E. faecalis phage IME-EF1). The experiment in a line: crystal structure; EFm1_(D166Q) 15 mg/mL, sitting drop, 16 °C; 2.2 Å; phases by Se-Met SAD.
The target in assay [2] is C-terminal domain EFm1 166-237 aa (E. faecalis phage IME-EF1). The experiment in a line: crystal structure; EFm1_(166–237 aa) 10 mg/mL, sitting drop, 16 °C; 2.0 Å; eight monomers in the asymmetric unit.

In the case of “8 kDa C-terminal fragment of EFm1, translated from the alternative start codon M168 (domain or fragment)”, the stoichiometry N (CTD fragments per full-length chain) in assay [1] is 3. As for “C-terminal domain EFm1 166-237 aa (domain or fragment)”, the stoichiometry N (commonly a count of units in the complex or per binding partner) in assay [2] came to 4.
